For 4 substances, stoichiometry N results are on record in PMC1702487.

What is called stoichiometry N is the number of molecules, sites or subunits per partner or assembly.

Holding throughout (test): AUC
For experiment [1], the target named is I-CreI 28K30N33H38Q40S44K68E70G75N (combinatorial mutant KNHQS/KEG) (Chlamydomonas reinhardti).
Experiment [2] addresses I-CreI 28N30N33S38R40K44A68R70R75N (combinatorial mutant NNSRK/ARR) (Chlamydomonas reinhardti).
The target in experiment [3] is I-CreI 28K30N33H38Q40S44K68A70S75N (combinatorial mutant KNHQS/KAS) (Chlamydomonas reinhardti).
The target of experiment [4] is I-CreI 28N30N33S38R40K44A68S70R75N (combinatorial mutant NNSRK/ASR) (Chlamydomonas reinhardti).

For “I-CreI 28K30N33H38Q40S44K68E70G75N (combinatorial mutant KNHQS/KEG) (enzyme)”, the stoichiometry N in experiment [1] turned out to be 2.
On to “I-CreI 28N30N33S38R40K44A68R70R75N (combinatorial mutant NNSRK/ARR) (enzyme)”, for which, in experiment [2], the stoichiometry N turned out to be 2.
With “I-CreI 28K30N33H38Q40S44K68A70S75N (combinatorial mutant KNHQS/KAS) (enzyme)”, the stoichiometry N in experiment [3] amounted to 2.
Turning to “I-CreI 28N30N33S38R40K44A68S70R75N (combinatorial mutant NNSRK/ASR) (enzyme)”, the stoichiometry N in experiment [4] was 2.
